The target in data set [1] is T1, Ago2 (Flag-tagged, HFT-Ago2) (UniProt Q9UKV8 1-859). The experiment in a line: pull-down.
Data set [2] addresses T2, Ago2 (HaloTag-Ago2) (UniProt Q9UKV8 1-859). The experiment in a line: competition filter binding.
In data set [3] the target is T1, Ago2 (Flag-tagged, HFT-Ago2). The data set can be described thus: competition filter binding.
For data set [4] the target is unchanged. The experiment in a line: filter binding.
The target is the same in data set [5]. The experiment in a line: pull-down. The source holds these as a separate data set.
Data set [6] has as its target T2, Ago2 (HaloTag-Ago2). The data set can be described thus: pull-down.

Like-named read-outs stand apart in the source and are kept apart here.

What is called Kd is the free concentration of one partner at which half of the binding sites on the other are occupied at equilibrium, for simple one-to-one binding.

T1 sequence (Q9UKV8 whole entry): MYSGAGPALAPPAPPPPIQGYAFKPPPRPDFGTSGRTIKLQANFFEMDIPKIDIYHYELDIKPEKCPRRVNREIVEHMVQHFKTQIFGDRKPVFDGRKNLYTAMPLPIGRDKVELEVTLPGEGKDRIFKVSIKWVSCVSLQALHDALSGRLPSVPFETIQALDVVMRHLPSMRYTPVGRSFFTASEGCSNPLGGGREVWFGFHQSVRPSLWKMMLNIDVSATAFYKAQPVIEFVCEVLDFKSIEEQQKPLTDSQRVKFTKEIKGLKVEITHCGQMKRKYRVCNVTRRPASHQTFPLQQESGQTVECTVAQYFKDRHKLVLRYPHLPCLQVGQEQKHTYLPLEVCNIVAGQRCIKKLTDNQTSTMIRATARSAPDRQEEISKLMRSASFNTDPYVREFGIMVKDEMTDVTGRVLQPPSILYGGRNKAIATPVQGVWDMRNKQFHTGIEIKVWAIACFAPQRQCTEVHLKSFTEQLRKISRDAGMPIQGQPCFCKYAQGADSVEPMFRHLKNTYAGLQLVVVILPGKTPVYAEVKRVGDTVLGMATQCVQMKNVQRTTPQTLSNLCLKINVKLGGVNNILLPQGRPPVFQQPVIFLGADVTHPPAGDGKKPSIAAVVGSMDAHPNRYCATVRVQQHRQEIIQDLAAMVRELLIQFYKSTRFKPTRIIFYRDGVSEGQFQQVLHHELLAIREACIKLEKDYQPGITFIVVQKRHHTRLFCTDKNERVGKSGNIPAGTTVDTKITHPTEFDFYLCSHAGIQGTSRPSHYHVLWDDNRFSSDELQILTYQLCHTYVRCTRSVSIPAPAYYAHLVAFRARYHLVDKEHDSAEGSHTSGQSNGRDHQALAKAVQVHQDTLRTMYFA
T2 sequence (Q9UKV8 whole entry): as above

B1: miR122-v1 guide / target-2 (seed-only) (mixed)
RNA 1: UGGAGUGUGACAGCGGCGAAAG
RNA 2: AUAGAAAAACACUCCUAA
modifications: 5'-phosphate on guide
As to B1, the binding result in data set [1] is reported as “binds”.

B2: miR122-v2 guide / target-2 (seed + sup) (mixed)
RNA 1: UGGAGUGUGACACUAUCGAAAG
RNA 2: AUAGAAAAACACUCCUAA
modifications: 5'-phosphate on guide
Molecule B2 returned a binding signal with Ago2 (HaloTag-Ago2) [2] of approximately 5 fold bound over target-1.

B3: miR122-v1 guide / target-1 (seed + sup) (mixed)
RNA 1: UGGAGUGUGACAGCGGCGAAAG
RNA 2: CCGCAAAAAAAAAAACACUCCUAA
modifications: 5'-phosphate on guide
Consider B3, for which the binding signal in data set [3] was approximately 13 fold bound over target-2. In addition, binding in data set [4] was put at a Kd of 5.6 ± 0.5 pM.

B4: miR122-v1 guide / target-1 with swapped (4 nt) bridge (mixed)
RNA 1: UGGAGUGUGACAGCGGCGAAAG
RNA 2: CCGCAAAAACACUCCUAA
modifications: 5'-phosphate on guide
Regarding B4, the binding result in data set [5] is on record as “binds”.

B5: miR122-v2 guide / target-1 (seed-only) (mixed)
RNA 1: UGGAGUGUGACACUAUCGAAAG
RNA 2: CCGCAAAAAAAAAAACACUCCUAA
modifications: 5'-phosphate on guide
B5: the binding result with Ago2 (HaloTag-Ago2) [6] is “binds”.
